# Laboratory results: US20100233157A1 (published 2010)
# T1: Human Fas (CD95) on the cell surface (human, UniProt P25445 26-335)
# T1 construct: also called APO-1; TNR6_Human
# T1 sequence: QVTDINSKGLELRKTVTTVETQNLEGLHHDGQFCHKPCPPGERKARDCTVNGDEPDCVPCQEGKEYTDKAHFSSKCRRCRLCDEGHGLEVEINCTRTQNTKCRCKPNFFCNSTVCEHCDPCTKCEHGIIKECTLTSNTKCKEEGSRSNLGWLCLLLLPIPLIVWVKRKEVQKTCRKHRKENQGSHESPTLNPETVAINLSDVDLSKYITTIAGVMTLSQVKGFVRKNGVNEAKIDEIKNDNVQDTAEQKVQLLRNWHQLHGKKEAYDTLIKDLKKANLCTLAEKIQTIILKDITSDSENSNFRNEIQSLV
# T2: JPT33 peptide (human)
# T2 construct: Peptide of the human Fas peptide scan, immobilized on a glass microarray (JPT peptide technologies)
# T2 peptide: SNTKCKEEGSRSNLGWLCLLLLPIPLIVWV
# T3: JPT32 peptide (human)
# T3 construct: Peptide of the human Fas peptide scan, immobilized on a glass microarray (JPT peptide technologies)
# T3 peptide: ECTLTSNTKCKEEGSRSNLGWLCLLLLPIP
# T4: JPT31 peptide (human)
# T4 construct: Peptide of the human Fas peptide scan, immobilized on a glass microarray (JPT peptide technologies)
# T4 peptide: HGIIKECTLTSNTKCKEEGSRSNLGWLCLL
# B1: F45D9-γ1 mAb (recombinant human mAb T17/B2-1G4, gamma-1 isotype) (antibody, V domains shown)
# VH: QVQLQQWGAGLLKPSETLSLICAVYGGSFSTYYWTWIRQPPGKGLEWIGEINHRGTTNYSPSLKSRVTISVDTSKNHISLNLTSVTAADTALYYCARGLLWIGEGDYGLDVWGQGTTVTVSS
# VL: DIQMTQSPSSLSASVGDRVTITCRASQGIRRWLAWYQQKPEKAPKSLIYAASSLQSGVPSRFSGSGSGTDFTLTISSLQPEDFATYYCQQYNSYPYTFGQGTKLEIKR
# notes: Whole human IgG1 (γ1fa allotype) with human kappa light chain, made in CHO DG44 cells; also called IgG1; T17/L18/B2-1G4
# Legend:
# [1] = target: T1, Human Fas (CD95) on the cell surface; assay: flow cytometry on Jurkat cells, FITC anti-human IgG secondary, geometric MFI after background subtraction
# Experimental: Binding of F45D9-γ1 and F45D9-γ4 to the surface of Fas expressing Jurkat and SKW6.4 cells (from ATCC, Jurkat, clone E6-1, ATCC-TIB-152, Human T Leukemia cell line); SKW6.4 cells, ATCC-TIB-215, Human B lymphoblastoid cell line) was explored by immunofluorescence staining and flow cytometry analysis. Cells were cultured in RPMI 1640 medium (GIBCO, Cat. 3105205) supplemented with 2 mM glutamax (GIBCO), 100 UI/mL penicillin, 100 μg/mL streptomycin (Sigma) and 5-10% fetal bovine serum (GIBCO), at 37° C. and 5% CO₂. After washing in PBS Jurkat or SKW6.4 cells (0.2×10⁶ cells/well) were incubated in staining buffer (PBS/1% FBS) containing F45D9-γ1, F45D9-γ4 or human IgG control antibodies (Human IgG1, kappa, Sigma, Cat. I5154 or Human IgG4, kappa, Sigma, Cat. I4639) in a 96-well U-bottom plate for 30 min on ice, in a 100 ul/well volume. Cells were then washed once with staining buffer, and further incubated for 30 min on ice with 1:30 dilution of FITC-conjugated rabbit F(ab′)₂ anti-human IgG (DakoCytomation Cat. F0056). After washing and fixing with 1% formaldehyde in PBS cells were analyzed in a FACScan (Becton Dickinson, Mountain View, Calif.). The reactivity of F45D9-γ1 and F45D9-γ4 to the surface of Jurkat cells was quantified and Geometric Mean Fluorescence Intensity (MFI) after background subtraction (FIG. 1A) and histograms (FIG. 1B) are shown. […]
# [2] = target: T5, Common marmoset Fas on the cell surface (common marmoset (Callithrix jacchus)); assay: flow cytometry on the marmoset B cell line 9601, FITC anti-human IgG secondary, MFI after subtraction of the control human γ1 staining
# T5 construct: whole, on cells
# Excerpt: Reactivity of F45D9-γ1 or F45D9-γ4 mAb with Fas molecules of various species was initially screened using primary blood cells or lymphocytes cell lines. The binding of F45D9-γ1 or F45D9-γ4 mAb was explored by immunofluoresce staining and flow cytometry analysis, in human PBMC, purified human resting T cells, activated human T cells, peripheral blood lymphocytes (PBL) derived from BALE/c mice, rat, dog and pig, and in B cell lines or PBL derived from common marmoset, cynomolgus macaque, olive baboon, rhesus macaque and chimpanzee. Resting and activated human T cells were prepared as described in Example 7. B cells lines from monkeys were obtained from Biomedical Primate Research Center (Rijswijk, The Netherlands), and were cultured in RPMI 1640 medium supplemented with 2 mM glutamax, 100 UI/mL penicillin, 100 μg/mL streptomycin and 10% fetal bovine serum, at 37° C. and 5% CO₂. After washing in PBS cells (0.2−0.4×10⁶ cells/well) were incubated in staining buffer (PBS/1% FBS) containing F45D9-γ1 or human IgG control antibodies (10-20 ug/ml) in a 96-well U-bottom plate for 30 min on ice, in a 100 ul/well volume. Cells were then washed once with staining buffer, and further incubated for 30 min on ice with 1:30 dilution of FITC-conjugated rabbit F(ab′)₂ anti-human kappa (DakoCytomation Cat. F0434) or FITC-conjugated rabbit F(ab′)₂ anti-human IgG (DakoCytomation Cat. F0056). […]
# JPT33 peptide = target: T2, JPT33 peptide; assay: peptide microarray (JPT), 50 ug/ml antibody
# Experimental: (§1) Epitope mapping of F45D9-γ1 and F45D9-γ4 mAb was done using peptide microarrays from JPT peptide technologies. The microarray is composed of several different peptide scans of TNR6_Human protein (FAS molecule, accession number P25445; Oehm A. et al. J. Biol. Chem. 267:10709, 1992), immobilized on a glass surface. The microarrays were pre-treated 2 h at room temperature with blocking buffer (Pierce, Superblock), followed by washings with TBS buffer, pH 8.0 and water (3 times each). Pre-treated arrays were scanned using Axon-4000B-Microarray Scanner for background control. […] Control incubation with secondary antibody only was performed in parallel. All microarrays were scanned using Axon-4000B-Microarray Scanner with appropriate wavelength settings. SPOT recognition software package ArrayPro was used for data analysis. Mean of signal intensities from 3 identical subarrays on each microarray image were used for data evaluation.
# JPT32 peptide = target: T3, JPT32 peptide; assay: peptide microarray (JPT), 50 ug/ml antibody
# Experimental: as §1
# JPT31 peptide = target: T4, JPT31 peptide; assay: peptide microarray (JPT), 50 ug/ml antibody
# Experimental: as §1
binder,measurement,setting,value
B1,EC50 (read off the curve),[1],~0.5 µg/mL
same,EC50 (read off the curve),[2],~1 µg/mL
same,binding result,JPT33 peptide,binds
same,binding result,JPT32 peptide,binds
same,binding result,JPT31 peptide,binds
